{"source": "paper PMC6315291", "target": "Recombinant human Pentraxin 3 (PTX3) (human) (UniProt P26022)", "sequence (P26022 18-381)": "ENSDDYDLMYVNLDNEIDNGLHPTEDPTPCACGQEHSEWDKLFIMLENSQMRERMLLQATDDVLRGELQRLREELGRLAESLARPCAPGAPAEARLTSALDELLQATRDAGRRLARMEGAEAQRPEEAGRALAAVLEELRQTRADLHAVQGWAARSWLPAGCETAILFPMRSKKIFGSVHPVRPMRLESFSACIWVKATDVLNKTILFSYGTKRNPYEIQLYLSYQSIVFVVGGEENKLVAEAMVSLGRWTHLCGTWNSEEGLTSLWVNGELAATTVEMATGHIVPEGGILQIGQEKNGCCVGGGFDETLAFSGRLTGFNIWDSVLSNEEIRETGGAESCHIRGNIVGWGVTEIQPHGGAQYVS", "experiment": "ELISA", "data": [{"substance": "Human TSP1 construct E123CaG-1 (type II repeats plus type III repeats and globular C-terminus) (domain or fragment)", "values": [{"measurement": "increase of OD 450 nm over control buffer (% fold increase)", "value": 64}]}]}
